Test results: article PMC4118585

B1: myc-tagged FIP4 (FIP4-myc), full length (natural protein)
chain: MAGGAGWSGAPAALLRSVRRLREVFEVCGRDPDGFLRVERVAALGLRFGQGEEVEKLVKYLDPNDLGRINFKDFCRGVFAMKGCEELLKDVLSVESAGTLPCAPEIPDCVEQGSEVTGPTFADGELIPREPGFFPEDEEEAMTLAPPEGPQELYTDSPMESTQSLEGSVGSPAEKDGGLGGLFLPEDKSLVHTPSMTTSDLSTHSTTSLISNEEQFEDYGEGDDVDCAPSSPCPDDETRTNVYSDLGSSVSSSAGQTPRKMRHVYNSELLDVYCSQCCKKINLLNDLEARLKNLKANSPNRKISSTAFGRQLMHSSNFSSSNGSTEDLFRDSIDSCDNDITEKVSFLEKKVTELENDSLTNGDLKSKLKQENTQLVHRVHELEEMVKDQETTAEQALEEEARRHREAYGKLEREKATEVELLNARVQQLEEENTELRTTVTRLKSQTEKLDEERQRMSDRLEDTSLRLKDEMDLYKRMMDKLRQNRLEFQKEREATQELIEDLRKELEHLQMYKLDCERPGRGRSASSGLGEFNARAREVELEHEVKRLKQENYKLRDQNDDLNGQILSLSLYEAKNLFAAQTKAQSLAAEIDTASRDELMEALKEQEEINFRLRQYMDKIILAILDHNPSILEIKH
B2: myc-tagged FIP3 (FIP3-myc) (natural protein)
chain: MASAPPASPPGSEPPGPDPEPGGPDGPGAAQLAPGPAELRLGAPVGGPDPQSPGLDEPAPGAAADGGARWSAGPAPGLEGGPRDPGPSAPPPRSGPRGQLASPDAPGPGPRSEAPLPELDPLFSWTEEPEECGPASCPESAPFRLQGSSSSHRARGEVDVFSPFPAPTAGELALEQGPGSPPQPSDLSQTHPLPSEPVGSQEDGPRLRAVFDALDGDGDGFVRIEDFIQFATVYGAEQVKDLTKYLDPSGLGVISFEDFYQGITAIRNGDPDGQCYGGVASAQDEEPLACPDEFDDFVTYEANEVTDSAYMGSESTYSECETFTDEDTSTLVHPELQPEGDADSAGGSAVPSECLDAMEEPDHGALLLLPGRPHPHGQSVITVIGGEEHFEDYGEGSEAELSPETLCNGQLGCSDPAFLTPSPTKRLSSKKVARYLHQSGALTMEALEDPSPELMEGPEEDIADKVVFLERRVLELEKDTAATGEQHSRLRQENLQLVHRANALEEQLKEQELRACEMVLEETRRQKELLCKMEREKSIEIENLQTRLQQLDEENSELRSCTPCLKANIERLEEEKQKLLDEIESLTLRLSEEQENKRRMGDRLSHERHQFQRDKEATQELIEDLRKQLEHLQLLKLEAEQRRGRSSSMGLQEYHSRARESELEQEVRRLKQDNRNLKEQNEELNGQIITLSIQGAKSLFSTAFSESLAAEISSVSRDELMEAIQKQEEINFRLQDYIDRIIVAIMETNPSILEVK

Target: HCMV glycoprotein M (gM, UL100) in HCMV-infected cells (HCMV strain AD169)
Assay: FRET or BRET

HCMV glycoprotein M (gM, UL100) in HCMV-infected cells (HCMV strain AD169), sequence (P16733 whole entry): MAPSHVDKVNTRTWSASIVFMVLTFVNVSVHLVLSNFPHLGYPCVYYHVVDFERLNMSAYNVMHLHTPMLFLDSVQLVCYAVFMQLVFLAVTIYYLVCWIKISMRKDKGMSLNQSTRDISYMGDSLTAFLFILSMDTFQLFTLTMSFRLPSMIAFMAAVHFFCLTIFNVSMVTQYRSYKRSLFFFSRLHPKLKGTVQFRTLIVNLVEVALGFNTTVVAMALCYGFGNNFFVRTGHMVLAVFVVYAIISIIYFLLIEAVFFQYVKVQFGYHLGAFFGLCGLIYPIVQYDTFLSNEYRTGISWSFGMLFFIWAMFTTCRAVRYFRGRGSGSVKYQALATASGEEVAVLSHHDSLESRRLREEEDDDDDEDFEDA

Row | Binder | average FRET efficiency [%]
1 | B1 | 27
2 | B2 | < 2
